Measured values: publication PMC9482650, “Quantitative fragmentomics allow affinity mapping of interactomes” (Nature Communications, 2022)

T1: GRIP1_7, Q9Y3R0
T1 sequence (Q9Y3R0 999-1096, limits assumed, looked up): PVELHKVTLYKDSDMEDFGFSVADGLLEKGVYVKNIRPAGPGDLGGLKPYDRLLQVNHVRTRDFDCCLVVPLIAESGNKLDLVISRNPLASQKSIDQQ

T2: TJP3_3, O95049
T2 sequence (O95049 375-456, limits assumed, looked up): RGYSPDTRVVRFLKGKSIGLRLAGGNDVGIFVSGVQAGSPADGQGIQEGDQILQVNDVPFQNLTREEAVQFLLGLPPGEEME

T3: DLG3_3, Q92796
T3 sequence (Q92796 374-475, limits assumed, looked up): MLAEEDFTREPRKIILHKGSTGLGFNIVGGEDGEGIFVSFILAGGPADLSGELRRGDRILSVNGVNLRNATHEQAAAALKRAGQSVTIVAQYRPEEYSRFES

T4: NHERF3_1, Q5T2W1
T4 sequence (Q5T2W1 4-100, limits assumed, looked up): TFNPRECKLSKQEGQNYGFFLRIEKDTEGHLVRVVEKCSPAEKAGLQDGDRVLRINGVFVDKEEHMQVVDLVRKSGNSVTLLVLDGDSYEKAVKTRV

T5: APBA2_1, Q99767
T5 sequence (Q99767 563-664, limits assumed, looked up): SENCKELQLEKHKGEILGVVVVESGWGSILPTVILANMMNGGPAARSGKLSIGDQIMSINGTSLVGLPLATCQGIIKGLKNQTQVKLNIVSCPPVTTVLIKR

T6: HTRA4, P83105
T6 sequence (P83105 378-476, limits assumed, looked up): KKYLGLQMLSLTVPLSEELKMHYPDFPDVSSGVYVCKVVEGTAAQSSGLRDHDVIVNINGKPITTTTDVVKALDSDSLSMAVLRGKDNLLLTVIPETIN

T7: PDZD2_2, O15018
T7 sequence (O15018 329-429, limits assumed, looked up): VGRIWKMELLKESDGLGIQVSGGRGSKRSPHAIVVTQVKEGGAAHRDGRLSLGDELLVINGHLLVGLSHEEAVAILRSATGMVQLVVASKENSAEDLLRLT

T8: DFNB31_3, Q9P202
T8 sequence (Q9P202 811-907, limits assumed, looked up): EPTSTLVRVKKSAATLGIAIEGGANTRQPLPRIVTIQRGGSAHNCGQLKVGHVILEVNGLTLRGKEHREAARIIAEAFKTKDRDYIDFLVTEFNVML


Tests used:
Test in all cases: holdup assay
Design in all cases: key: below the threshold = too weak to quantify, mostly under pKd 3.1 to 4
Settings in all cases: plain residues with an end cap or a label only (N-terminal biotin on a linker: ttds)
GRIP1_7, Q9Y3R0 = target: T1, GRIP1_7, Q9Y3R0
TJP3_3, O95049 = target: T2, TJP3_3, O95049
DLG3_3, Q92796 = target: T3, DLG3_3, Q92796
FRMPD2_1, Q68DX3 = target: FRMPD2_1, Q68DX3
Chain of FRMPD2_1, Q68DX3 (Q68DX3 770-861): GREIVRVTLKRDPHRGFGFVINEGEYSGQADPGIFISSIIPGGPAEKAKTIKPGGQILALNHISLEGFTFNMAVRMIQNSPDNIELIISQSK

LNX1_3, Q8TBB1 = target: LNX1_3, Q8TBB1
Chain of LNX1_3, Q8TBB1 (Q8TBB1 500-596): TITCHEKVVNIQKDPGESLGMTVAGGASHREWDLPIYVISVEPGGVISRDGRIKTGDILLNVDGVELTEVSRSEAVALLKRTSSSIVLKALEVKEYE

DLG4_2, P78352 = target: DLG4_2, P78352
Chain of DLG4_2, P78352 (P78352 155-259): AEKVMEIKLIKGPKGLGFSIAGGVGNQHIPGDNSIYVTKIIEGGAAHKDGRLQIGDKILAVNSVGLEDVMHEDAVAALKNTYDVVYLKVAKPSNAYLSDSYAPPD

MAST2, Q6P0Q8 = target: MAST2, Q6P0Q8
Chain of MAST2, Q6P0Q8 (Q6P0Q8 1099-1202): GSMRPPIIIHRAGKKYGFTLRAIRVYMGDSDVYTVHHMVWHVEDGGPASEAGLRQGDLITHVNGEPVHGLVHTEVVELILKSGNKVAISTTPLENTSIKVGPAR

Inadl_2, Q8NI35 = target: Inadl_2, Q8NI35
Chain of Inadl_2, Q8NI35 (Q8NI35 238-335): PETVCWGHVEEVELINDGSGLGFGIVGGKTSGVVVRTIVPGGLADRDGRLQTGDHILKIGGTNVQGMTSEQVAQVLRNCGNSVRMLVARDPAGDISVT

FRMPD4, Q14CM0 = target: FRMPD4, Q14CM0
Chain of FRMPD4, Q14CM0 (Q14CM0 67-160): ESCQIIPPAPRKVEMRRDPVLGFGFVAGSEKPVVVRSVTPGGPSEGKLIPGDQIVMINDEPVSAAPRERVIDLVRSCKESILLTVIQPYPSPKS

NHERF3_1, Q5T2W1 = target: T4, NHERF3_1, Q5T2W1
DLG4_1, P78352 = target: DLG4_1, P78352
Chain of DLG4_1, P78352 (P78352 62-152): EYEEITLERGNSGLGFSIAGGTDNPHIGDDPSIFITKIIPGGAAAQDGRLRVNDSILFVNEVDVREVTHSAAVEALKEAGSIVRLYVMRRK

Inadl_8, Q8NI35 = target: Inadl_8, Q8NI35
Chain of Inadl_8, Q8NI35 (Q8NI35 1425-1530): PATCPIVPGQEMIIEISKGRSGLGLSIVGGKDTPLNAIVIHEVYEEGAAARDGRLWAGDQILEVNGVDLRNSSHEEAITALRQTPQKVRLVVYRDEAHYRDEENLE

MAGI2_3, Q86UL8 = target: MAGI2_3, Q86UL8
Chain of MAGI2_3, Q86UL8 (Q86UL8 600-682): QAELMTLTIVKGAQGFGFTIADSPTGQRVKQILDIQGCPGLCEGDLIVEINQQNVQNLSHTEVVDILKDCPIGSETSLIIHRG

SCRIB_1, Q14160 = target: SCRIB_1, Q14160
Chain of SCRIB_1, Q14160 (Q14160 718-814): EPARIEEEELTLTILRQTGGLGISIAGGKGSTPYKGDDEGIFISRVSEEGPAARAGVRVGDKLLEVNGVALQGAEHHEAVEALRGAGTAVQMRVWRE

LNX1_1, Q8TBB1 = target: LNX1_1, Q8TBB1
Chain of LNX1_1, Q8TBB1 (Q8TBB1 261-371): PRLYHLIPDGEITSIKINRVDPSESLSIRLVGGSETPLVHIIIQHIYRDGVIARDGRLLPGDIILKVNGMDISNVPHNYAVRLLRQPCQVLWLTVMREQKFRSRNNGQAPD

LIMK2, P53671 = target: LIMK2, P53671
Chain of LIMK2, P53671 (P53671 143-248): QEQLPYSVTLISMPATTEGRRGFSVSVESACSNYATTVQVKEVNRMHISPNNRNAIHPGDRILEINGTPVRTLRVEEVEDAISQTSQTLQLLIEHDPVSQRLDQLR

SNX27, Q96L92 = target: SNX27, Q96L92
DLG1_3, Q12959 = target: DLG1_3, Q12959
Chain of DLG1_3, Q12959 (Q12959 457-571): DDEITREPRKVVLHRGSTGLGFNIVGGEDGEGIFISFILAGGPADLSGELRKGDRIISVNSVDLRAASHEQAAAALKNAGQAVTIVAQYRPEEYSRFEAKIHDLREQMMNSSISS

APBA2_1, Q99767 = target: T5, APBA2_1, Q99767
SCRIB_2, Q14160 = target: SCRIB_2, Q14160
Chain of SCRIB_2, Q14160 (Q14160 857-960): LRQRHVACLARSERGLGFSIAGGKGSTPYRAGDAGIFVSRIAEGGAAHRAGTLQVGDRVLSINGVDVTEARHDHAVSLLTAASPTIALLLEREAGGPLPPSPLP

HTRA4, P83105 = target: T6, HTRA4, P83105
MAGI2_5, Q86UL8 = target: MAGI2_5, Q86UL8
Chain of MAGI2_5, Q86UL8 (Q86UL8 915-1017): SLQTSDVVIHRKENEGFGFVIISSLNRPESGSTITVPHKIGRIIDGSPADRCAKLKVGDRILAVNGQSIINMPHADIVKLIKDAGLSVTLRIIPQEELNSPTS

DLG2_2, Q15700 = target: DLG2_2, Q15700
Chain of DLG2_2, Q15700 (Q15700 189-283): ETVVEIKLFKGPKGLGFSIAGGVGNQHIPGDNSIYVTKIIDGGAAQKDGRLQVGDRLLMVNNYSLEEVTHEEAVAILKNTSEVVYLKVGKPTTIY

PDZD2_2, O15018 = target: T7, PDZD2_2, O15018
NHERF4_1, Q86UT5-2 = target: NHERF4_1, Q86UT5-2
Chain of NHERF4_1, Q86UT5-2 (Q86UT5 other isoform, or with tags, fused parts or gaps): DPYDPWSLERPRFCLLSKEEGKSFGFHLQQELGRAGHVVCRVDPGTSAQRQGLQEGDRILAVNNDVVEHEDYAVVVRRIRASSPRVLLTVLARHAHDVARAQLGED

GRIP2_3, Q9C0E4 = target: GRIP2_3, Q9C0E4
Chain of GRIP2_3, Q9C0E4 (Q9C0E4 238-339): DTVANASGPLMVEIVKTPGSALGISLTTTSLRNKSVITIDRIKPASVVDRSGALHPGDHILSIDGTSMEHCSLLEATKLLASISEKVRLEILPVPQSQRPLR

DFNB31_3, Q9P202 = target: T8, DFNB31_3, Q9P202
GORASP2, Q9H8Y8 = target: GORASP2, Q9H8Y8
GOPC, Q9HD26 = target: GOPC, Q9HD26
DLG4_3, P78352 = target: DLG4_3, P78352
Chain of DLG4_3, P78352 (P78352 306-403): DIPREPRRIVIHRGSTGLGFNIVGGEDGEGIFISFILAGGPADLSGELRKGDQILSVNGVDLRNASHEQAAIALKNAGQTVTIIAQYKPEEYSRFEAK

NHERF4_4, Q86UT5 = target: NHERF4_4, Q86UT5
Chain of NHERF4_4, Q86UT5 (Q86UT5 464-550): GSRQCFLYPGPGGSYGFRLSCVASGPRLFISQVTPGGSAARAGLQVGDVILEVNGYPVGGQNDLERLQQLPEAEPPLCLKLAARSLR

Binder | pKd (GRIP1_7, Q9Y3R0) | pKd (TJP3_3, O95049) | pKd (DLG3_3, Q92796) | pKd (FRMPD2_1, Q68DX3) | pKd (LNX1_3, Q8TBB1) | pKd (DLG4_2, P78352) | pKd (MAST2, Q6P0Q8) | pKd (Inadl_2, Q8NI35) | pKd (FRMPD4, Q14CM0) | pKd (NHERF3_1, Q5T2W1) | pKd (DLG4_1, P78352) | pKd (Inadl_8, Q8NI35) | pKd (MAGI2_3, Q86UL8) | pKd (SCRIB_1, Q14160) | pKd (LNX1_1, Q8TBB1) | pKd (LIMK2, P53671) | pKd (SNX27, Q96L92) | pKd (DLG1_3, Q12959) | pKd (APBA2_1, Q99767) | pKd (SCRIB_2, Q14160) | other results
RLPKIKETTV [FRMPD4, Q14CM0] | below the threshold | below the threshold | 5.21 | below the threshold | below the threshold | 5.6 | 4.93 | below the threshold | 3.4 | below the threshold | 5.05 | 3.98 | 4.05 | 4.95 | below the threshold | below the threshold | 5.73 | 5.3 | below the threshold | 4.61 | pKd (HTRA4, P83105): below the threshold; pKd (MAGI2_5, Q86UL8): 3.9; pKd (DLG2_2, Q15700): 5.5; pKd (PDZD2_2, O15018): 4.05; pKd (NHERF4_1, Q86UT5-2): below the threshold; pKd (GRIP2_3, Q9C0E4): below the threshold; pKd (DFNB31_3, Q9P202): below the threshold; pKd (GORASP2, Q9H8Y8): 4.02; pKd (GOPC, Q9HD26): 3.83; pKd (DLG4_3, P78352): 5.25; pKd (NHERF4_4, Q86UT5): below the threshold
RHTTSTETAV [HPV30-E6, P36809] | below the threshold | below the threshold | 4.66 | 4.14 | below the threshold | 5.45 | 5.52 | below the threshold | below the threshold | 4.87 | 4.92 | 3.94 | 4.57 | 4.76 | below the threshold | 3.85 | 5.64 | 4.39 | below the threshold | 5.11 | pKd (HTRA4, P83105): below the threshold; pKd (MAGI2_5, Q86UL8): 4.31; pKd (DLG2_2, Q15700): 5.19; pKd (PDZD2_2, O15018): 4.42; pKd (NHERF4_1, Q86UT5-2): below the threshold; pKd (GRIP2_3, Q9C0E4): 3.61; pKd (DFNB31_3, Q9P202): below the threshold; pKd (GORASP2, Q9H8Y8): below the threshold; pKd (GOPC, Q9HD26): 4.14; pKd (DLG4_3, P78352): 4.35; pKd (NHERF4_4, Q86UT5): below the threshold
